Laboratory results as given in patent publication US20130217685, “COMPOUNDS FOR MODULATING RNA BINDING PROTEINS AND USES THEREFOR” (UNIVERSITY OF MASSACHUSETTS, published 2013).

Target: T1, MEX-5 TZF domain (236-350) (Caenorhabditis elegans, UniProt Q9XUB2 Q9XUB2:236-350)
T1 sequence: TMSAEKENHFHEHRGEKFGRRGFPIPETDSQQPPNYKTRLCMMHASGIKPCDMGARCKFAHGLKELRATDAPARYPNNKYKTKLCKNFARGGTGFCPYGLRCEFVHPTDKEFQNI
Test: EMSA; 120 nM protein, 2-3 nM RNA; compound dose response (compound E IC50 2.0 uM)
Conditions: tags: N-terminal MBP (pMal-c, NEB); ORFeome clone, Open Biosystems; label: 3'-fluorescein
Description: A further dose response assay was performed on select compounds of the invention as described below. A sub-saturating concentration of MEX-5 or POS-1 (120 nM) was equilibrated with limiting fluorescein labeled RNA (2-3 nM, TCR2 RNA or MEX-3 UTR fragment RNA respectively) in the presence of varying concentrations of compound. Following equilibration, the reactions were loaded onto a 5% slab polyacrylamide gel and subjected to electrophoresis for about 1 hour to separate protein-RNA complex from free RNA. The gel was scanned on a FUJI FLA-5000 imager, and the fraction of bound RNA determined by dividing the intensity of the bound RNA by the intensity of the bound RNA plus the free RNA. The fraction of […] was plotted as a function of compound concentration and fit to a sigmoidal dose response function in order to determine the IC₅₀, the concentration that gives half maximal inhibition.

UUUCUUUAUAACUUGUUACAAUUUUUGAAA (ssRNA) [TCR2]: binds.
